Reference: the supplement of paper PMC10126150
± gives the standard deviation of the averaged measurements.

Test system: ATP
Test: switch fluorescence ratio, 500 uM ATP over buffer (Cy3 cluster intensity, sum of 5 cycles each) (fold (ratio)); higher = stronger signal-on switching upon ATP binding; sequences stand for … in TCGTCGGCAGCGTCAGATGTGTATAAGAGACAGTTTTTTTTTTTTTTTTTTTTTTTTT…TC
Settings: aptamer strand: ATP DNA aptamer (quencher-CACCTGGGGGAGTATTGCGGAGGAAGG + anchor), 100 nM annealed; ATP concentration: 500 uM
Outline: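 Cy3-labelled switching-strand clusters on a modified Illumina MiSeq flow-cell were annealed to 100 nM quencher-labelled ATP aptamer, imaged in selection buffer, then imaged after 15 min with 500 uM ATP at 22 °C. Five buffer/ATP cycles ran, with NaOH stripping and re-annealing between them. The fluorescence ratio is summed target-cycle over summed buffer-cycle Cy3 intensity per cluster, averaged per switch-domain sequence. Clusters outside 100-1000 RFU were excluded.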
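Further: ATP exposure 15 min at 22 °C before imaging.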

| Sequence | switch fluorescence ratio |
| --- | --- |
| CATCGCTATG | 1.096 ± 0.0097 |
| CATCGGATTT | 0.972 ± 0.01 |
| CATCGGGTGG | 1.03 ± 0.09 |
| CATCGGTGCG | 1.08 ± 0.19 |
| CATCGGTGGG | 0.97 ± 0.016 |
| CATCGGTGTG | 0.958 ± 0.047 |
| CATCGTCACG | 1.007 ± 0.0025 |
| CATCGTGGTT | 0.9778 ± 0.0043 |
| CATCTCTAGC | 0.993 ± 0.012 |
| CATCTCTGGA | 0.9986 ± 0.0016 |
| CATCTGCGGG | 1.16 ± 0.17 |
| CATCTTAGTG | 1.02 ± 0.057 |
| CATCTTGGAA | 1.01 ± 0.015 |
| CATGAAAAGT | 0.978 ± 0.047 |
| CATGAAGCTG | 1.02 ± 0.018 |
| CATGACCGAA | 1.014 ± 0.0039 |
| CATGATAGCG | 0.9981 ± 0.0019 |
| CATGATATGG | 0.969 ± 0.02 |
| CATGCATATT | 1.01 ± 0.044 |
| CATGCGAGGG | 1 ± 0.035 |
| CATGGAATCG | 1.02 ± 0.035 |
| CATGGAATTG | 0.989 ± 0.032 |
| CATGGAGCGA | 1.24 ± 0.064 |
| CATGGAGTAC | 1.02 ± 0.032 |
| CATGGCACGT | 1.02 ± 0.011 |

| Sequence | switch fluorescence ratio |
| --- | --- |
| CATGGCCTCT | 0.987 ± 0.034 |
| CATGGCCTGA | 0.977 ± 0.018 |
| CATGGGAATT | 0.982 ± 0.032 |
| CATGGGGGGA | 0.994 ± 0.018 |
| CATGGGGTTA | 1.04 ± 0.048 |
| CATGGGGTTG | 0.978 ± 0.02 |
| CATGGGTTGC | 0.99 ± 0.029 |
| CATGGTAAAT | 0.984 ± 0.018 |
| CATGGTACGC | 1.055 ± 0.0043 |
| CATGGTAGGA | 0.975 ± 0.026 |
| CATGGTGTTA | 1.01 ± 0.025 |
| CATGGTTGG | 1.01 ± 0.051 |
| CATGTACTTT | 1.08 ± 0.031 |
| CATGTATGGA | 1.01 ± 0.041 |
| CATGTCAAGC | 1.05 ± 0.024 |
| CATGTGCTTC | 1.03 ± 0.0077 |
| CATGTGGTCA | 1.03 ± 0.046 |
| CATGTTGCTG | 1.09 ± 0.029 |
| CATTAAGGGT | 0.992 ± 0.029 |
| CATTAATTTG | 1.01 ± 0.012 |
| CATTAATTTT | 0.968 ± 0.044 |
| CATTACAGTG | 1.01 ± 0.014 |
| CATTACGTGC | 0.996 ± 0.016 |
| CATTACTGTA | 1.24 ± 0.076 |
| CATTAGATCG | 0.997 ± 0.044 |

| Sequence | switch fluorescence ratio |
| --- | --- |
| CATTATGGGT | 0.95 ± 0.013 |
| CATTATTGGG | 0.9851 ± 0.0017 |
| CATTCAGGGG | 1.2 ± 0.061 |
| CATTCATGGA | 1.03 ± 0.035 |
| CATTCGCCTC | 2.218 ± 0.015 |
| CATTCGGGGC | 1.11 ± 0.038 |
| CATTCGGGGT | 0.994 ± 0.029 |
| CATTCGTTTC | 1.15 ± 0.05 |
| CATTCTGACG | 1.18 ± 0.033 |
| CATTCTGCGG | 1.049 ± 0.002 |
| CATTCTTTGG | 0.9836 ± 0.0041 |
| CATTGAAGAG | 0.998 ± 0.013 |
| CATTGAGTTC | 0.978 ± 0.014 |
| CATTGCGGGA | 1.02 ± 0.024 |
| CATTGGAAGA | 1.02 ± 0.015 |
| CATTGGGACA | 1.02 ± 0.019 |
| CATTGGGTGC | 1.0458 ± 0.00093 |
| CATTGTAATT | 0.981 ± 0.011 |
| CATTGTATGT | 0.9421 ± 0.0087 |
| CATTGTTAAT | 1.01 ± 0.04 |
| CATTGTTGAG | 1.01 ± 0.049 |
| CATTGTTGAT | 0.989 ± 0.017 |
| CATTGTTTTG | 0.9676 ± 0.0041 |
| CATTTAAAAA | 0.919 ± 0.032 |
| CATTTAAGAT | 0.997 ± 0.024 |

| Sequence | switch fluorescence ratio |
| --- | --- |
| CATTTACCGG | 0.996 ± 0.056 |
| CATTTACTAT | 1.05 ± 0.021 |
| CATTTAGGTT | 0.982 ± 0.019 |
| CATTTATGCC | 1.17 ± 0.31 |
| CATTTCCTGA | 1.02 ± 0.038 |
| CATTTCCTGG | 1.01 ± 0.044 |
| CATTTGAGTG | 1 ± 0.042 |
| CATTTGATTG | 0.988 ± 0.013 |
| CATTTGCCTT | 1.03 ± 0.035 |
| CATTTGGAAT | 1.7 ± 0.97 |
| CATTTGGGAC | 1.02 ± 0.047 |
| CATTTGGGCG | 1.03 ± 0.015 |
| CATTTTCCGG | 1.11 ± 0.16 |
| CATTTTCGGC | 1.01 ± 0.039 |
| CATTTTGTTG | 1.01 ± 0.024 |
| CATTTTTAAG | 1 ± 0.011 |
| CATTTTTCTG | 0.963 ± 0.06 |
| CCAAAAAAAG | 1.03 ± 0.032 |
| CCAAACGAGT | 0.9661 ± 0.0041 |
| CCAAAGTATA | 1.166 ± 0.0013 |
| CCAAATTGTG | 1.03 ± 0.03 |
| CCAACAGCCC | 1.12 ± 0.079 |
| CCAACATGAT | 1.017 ± 0.007 |
| CCAACCATTG | 1.03 ± 0.011 |
| CCAACTTTAC | 1.57 ± 0.037 |

| Sequence | switch fluorescence ratio |
| --- | --- |
| CCAAGGAGAC | 1.35 ± 0.052 |
| CCAAGGCTGG | 1.02 ± 0.043 |
| CCAAGGGAGG | 1.01 ± 0.03 |
| CCAAGGGGGG | 1.11 ± 0.22 |
| CCAAGGGTGC | 1.63 ± 0.11 |
| CCAAGTAAGG | 1.08 ± 0.031 |
| CCAATAACGC | 1.22 ± 0.074 |
| CCAATCACGG | 1.09 ± 0.012 |
| CCAATCTGAC | 1.3 ± 0.14 |
| CCAATGCAGC | 3.22 ± 0.27 |
| CCAATGGATA | 1.03 ± 0.02 |
| CCAATTGAAG | 1.02 ± 0.016 |
| CCAATTGCAT | 1.12 ± 0.021 |
| CCAATTGGTG | 1.03 ± 0.016 |
| CCAATTTATG | 0.9919 ± 0.0078 |
| CCAATTTGAA | 0.9913 ± 0.0081 |
| CCAATTTGTG | 1 ± 0.028 |
| CCAATTTTAC | 1.39 ± 0.055 |
| CCACAATTTT | 1.43 ± 0.63 |
| CCACCAATTT | 1.8 ± 1.2 |
| CCACGGGGGG | 1.27 ± 0.1 |
| CCACTGGGCG | 1.07 ± 0.014 |
| CCACTGGGGG | 1.04 ± 0.028 |
| CCAGACGGGC | 1.07 ± 0.059 |
| CCAGACGGTC | 1.04 ± 0.085 |

| Sequence | switch fluorescence ratio |
| --- | --- |
| CCAGAGGTTG | 0.999 ± 0.021 |
| CCAGATAACG | 1.04 ± 0.022 |
| CCAGATTACT | 1.01 ± 0.015 |
| CCAGATTTGT | 1.01 ± 0.016 |
| CCAGCACCTC | 1.45 ± 0.039 |
| CCAGCATAAT | 1.41 ± 0.05 |
| CCAGCCGTCG | 1.07 ± 0.04 |
| CCAGCGTGCT | 1.11 ± 0.08 |
| CCAGCTAGTT | 1.05 ± 0.086 |
| CCAGGACGTA | 1.02 ± 0.027 |
| CCAGGAGGCG | 0.999 ± 0.015 |
| CCAGGAGTAG | 1.034 ± 0.0039 |
| CCAGGAGTCA | 1.032 ± 0.0017 |
| CCAGGATGCG | 0.971 ± 0.035 |
| CCAGGATTAT | 1.027 ± 0.0034 |
| CCAGGCTTGA | 1.04 ± 0.052 |
| CCAGGCTTGT | 1.01 ± 0.018 |
| CCAGGGACGA | 1.02 ± 0.024 |
| CCAGGGGAGG | 1.11 ± 0.071 |
| CCAGGGGCTG | 1.67 ± 0.89 |
| CCAGGGGCTT | 1.31 ± 0.41 |
| CCAGGGGGTC | 1.11 ± 0.14 |
| CCAGGGTCGC | 0.9965 ± 0.0067 |
| CCAGGTGGCT | 2.64 ± 0.3 |
| CCAGGTTTGG | 1.03 ± 0.024 |

| Sequence | switch fluorescence ratio |
| --- | --- |
| CCAGTAAGTG | 1.09 ± 0.03 |
| CCAGTAATTT | 1.038 ± 0.0029 |
| CCAGTACTTC | 1.11 ± 0.023 |
| CCAGTCAACG | 0.9802 ± 0.0085 |
| CCAGTGATGT | 1.04 ± 0.024 |
| CCAGTGTATA | 1.002 ± 0.0013 |
| CCATAACGGG | 0.97548 ± 0.0008 |
| CCATAGGAAT | 1.06 ± 0.023 |
| CCATAGGGGG | 0.989 ± 0.025 |
| CCATATAGTT | 0.986 ± 0.03 |
| CCATATCGTG | 0.988 ± 0.026 |
| CCATATGGGG | 1.01 ± 0.019 |
| CCATATTTAG | 0.996 ± 0.028 |
| CCATCGGCTG | 1.06 ± 0.038 |
| CCATCGTAAT | 4.84 ± 1.1 |
| CCATGAGCAG | 2.06 ± 0.11 |
| CCATGGGTTG | 1.01 ± 0.016 |
| CCATGTTGAT | 1 ± 0.039 |
| CCATTAATCT | 1.34 ± 0.46 |
| CCATTCATTT | 0.991 ± 0.02 |
| CCATTCTTGA | 0.996 ± 0.037 |
| CCATTCTTGG | 0.977 ± 0.018 |
| CCATTGTTAT | 0.988 ± 0.017 |
| CCATTGTTTT | 0.997 ± 0.018 |
| CCATTTGAGA | 0.998 ± 0.022 |

| Sequence | switch fluorescence ratio |
| --- | --- |
| CCATTTTGCA | 1.04 ± 0.05 |
| CCCAAGGGCA | 1.02 ± 0.051 |
| CCCAATTTGC | 1.32 ± 0.022 |
| CCCACAGGAC | 1.73 ± 0.14 |
| CCCAGCTTGT | 1.035 ± 0.0031 |
| CCCAGGCGGA | 1.65 ± 0.78 |
| CCCAGGTAGC | 4.65 ± 0.43 |
| CCCATGTATC | 1.09 ± 0.011 |
| CCCATTTGTA | 1 ± 0.026 |
| CCCATTTTGT | 0.991 ± 0.02 |
| CCCCATTCCG | 1.04 ± 0.022 |
| CCCCGAAACT | 2.28 ± 1.5 |
| CCCCGAGCCG | 1.02 ± 0.06 |
| CCCGATTTTT | 0.993 ± 0.017 |
| CCCGCTGCTT | 1.33 ± 0.021 |
| CCCGGCCATT | 1.05 ± 0.013 |
| CCCGGCGAGT | 1.08 ± 0.038 |
| CCCGGGGGAA | 1.03 ± 0.014 |
| CCCGGGTATG | 1.03 ± 0.02 |
| CCCGGGTTAG | 1.08 ± 0.028 |
| CCCTAATACG | 1.76 ± 0.044 |
| CCCTGGGGTA | 1.07 ± 0.056 |
| CCCTGTAGGA | 1.04 ± 0.088 |
| CCCTTGACGG | 1.07 ± 0.14 |
| CCCTTTTTTG | 1.02 ± 0.05 |
